From patent US20250197490A1 (HBM ALPHA THERAPEUTICS, published 2025)
Read-outs that look alike come from different tables or passages of the source.

Experiments:
[1] = target: T1, corticotropin-releasing hormone (CRH) peptide (human and mouse, UniProt P01143 145-185 (rat entry), not fully specified); assay: cell-based or functional assay
T1 peptide: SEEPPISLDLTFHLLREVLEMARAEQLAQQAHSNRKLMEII

[2] = target: T2, biotinylated CRH (human and mouse, UniProt P01143 145-185 (rat entry), not fully specified; biotin; which end is not stated for the result (NT-biotin and CT-biotin forms were used)); assay: ELISA, CRH (NT biotin)
T2 construct: also called biotin-CRH; CRH (NT biotin)
T2 peptide: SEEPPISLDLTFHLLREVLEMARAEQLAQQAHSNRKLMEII

[3] = target: T2, biotinylated CRH; assay: ELISA, CRH (CT biotin)
[4] = target: T2, biotinylated CRH; assay: ELISA, CRH (NT biotin)
[5] = target: T2, biotinylated CRH; assay: ELISA, CRH (CT biotin)
[6] = target: T1, corticotropin-releasing hormone (CRH) …; assay: cell-based or functional assay
[7] = target: T2, biotinylated CRH; assay: ELISA, CRH (NT biotin)
[8] = target: T2, biotinylated CRH; assay: ELISA, CRH (NT biotin)
[9] = target: T2, biotinylated CRH; assay: ELISA, CRH (CT biotin)
Procedure: Streptavidin (Thermo, Cat: 21125) was diluted in PBS to a concentration of 2 μg/ml. 100 μl of diluted streptavidin was added per well to ELISA microplates, and the plates were incubated overnight at 4° C. […] Subsequently, plates were washed and incubated with HRP-conjugated goat anti-human IgG (H+L) antibody (Jackson, Cat: 109-035-088) at 37° C. for 1 hour. 100 μL of 3,3′,5,5′-tetramethylbenzidine (TMB) substrate (Biopanda, Cat: TMB-S-003) was added, and the plates were incubated at room temperature for 15 minutes. 100 μL of ELISA stopping solution (Solarbio, Cat #: C1058) was added to terminate the reaction, and the optical density at 450 nm (OD450 nm) was determined by an ELISA plate reader (Molecular Devices, Spectra max 384 plus).
These potential PTMs were mutated individually either in HCDR2 alone, in LCDR1 alone, or in various combinations of mutations, as detailed in Table 3. […] Most ΔPTM variants retained functional activities.

[10] = target: T1, corticotropin-releasing hormone (CRH) …; assay: cell-based or functional assay
[11] = target: T1, corticotropin-releasing hormone (CRH) …; assay: cell-based or functional assay
[12] = target: T1, corticotropin-releasing hormone (CRH) …; assay: cell-based or functional assay
[13] = target: T1, corticotropin-releasing hormone (CRH) …; assay: cell-based or functional assay
[14] = target: T2, biotinylated CRH; assay: ELISA, CRH (NT biotin)
In short: (§1)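 Steps: coat with streptavidin 2 μg/ml overnight at 4° C; wash; add HRP-conjugated goat anti-human IgG (H+L), 37° C for 1 hour; develop with TMB at room temperature 15 minutes; stop and measure OD at 450 nm.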

[15] = target: T2, biotinylated CRH; assay: ELISA, CRH (CT biotin)
In short: as §1

[16] = target: T3, N-Terminal CRH peptide (N-terminal region plus central region, CT biotin) (human and mouse, C-terminal K-Biotin); assay: ELISA, N-Ter-CRH (CT-biotin) on streptavidin
T3 construct: also called N-Ter-CRH
T3 peptide: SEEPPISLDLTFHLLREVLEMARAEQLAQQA
In short: as §1

[17] = target: T4, human UCN2 peptide, biotinylated (human, UniProt Q96RP3 72-109, limits assumed, biotin at N- or C-terminus); assay: ELISA, hUCN2 (NT biotin) and (CT biotin)
T4 construct: also called hUCN2 (NT Biotin); hUCN2 (CT Biotin)
T4 peptide (looked up): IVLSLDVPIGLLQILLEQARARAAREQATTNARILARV

[18] = target: T5, human UCN3 peptide, biotinylated (human, UniProt Q969E3 120-157, biotin at N- or C-terminus); assay: ELISA, hUCN3 (NT biotin) and (CT biotin)
T5 construct: also called hUCN3 (NT Biotin); hUCN3 (CT Biotin)
T5 peptide (looked up): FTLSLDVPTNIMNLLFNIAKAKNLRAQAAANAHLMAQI

[19] = target: T6, human UCN1 peptide, biotinylated (human, UniProt P55089 83-122, biotin at N- or C-terminus); assay: ELISA, hUCN1 (NT biotin) and (CT biotin)
T6 construct: also called hUCN1 (NT Biotin); hUCN1 (CT Biotin)
T6 peptide (looked up): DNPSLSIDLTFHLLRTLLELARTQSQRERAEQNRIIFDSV
Procedure: Streptavidin (Thermo, Cat: 21125) was diluted in PBS with a concentration of 2 μg/mL. 100 μL of diluted streptavidin was added per well to ELISA microplates, and the plates were incubated overnight at 4° C. Plates were blocked with ELISA blocking solution (containing 2% w/v BSA, 0.05% (v/v) Tween-20, pH 7.4 PBS buffer) at 37° C. for 1 hour, and then incubated with either 1 μg/mL hUCN1 (NT Biotin), hUCN1 (CT Biotin), hUCN2 (NT Biotin), hUCN2 (CT Biotin), hUCN3 (NT Biotin), or hUCN3 (CT Biotin) for 1 hour at 37° C. […] Plates were subsequently washed and incubated with HRP-conjugated goat anti-human IgG (H+L) antibody (Jackson, Cat: 109-035-088) at 37° C. for 1 hour. 100 μl of TMB Substrate (Biopanda, Cat: TMB-S-003) was added, and the plates were incubated at room temperature for 15 minutes. 100 μL of ELISA stopping solution (Solarbio, Cat #: C1058) was then added to terminate the reaction, and the OD450 nm was determined by an ELISA plate reader (Molecular Devices, Spectra max 384 plus).

[20] = target: T7, CRH (Central Region, NT Biotin) (N-terminal Biotin-K; C-terminal NH2); assay: ELISA, CRH central region peptide (NT biotin)
T7 construct: also called Central CRH
T7 peptide: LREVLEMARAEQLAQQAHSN
In short: as §1

[21] = target: T8, CRH (Central Region, CT Biotin) (C-terminal K-Biotin); assay: ELISA, CRH central region peptide (CT biotin)
T8 construct: also called Central CRH
T8 peptide: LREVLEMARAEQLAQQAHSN
In short: as §1

[22] = target: T9, CRH (C-Terminal Region, NT Biotin) (N-terminal Biotin-K; C-terminal NH2); assay: ELISA, CRH C-terminal region peptide (NT biotin)
T9 construct: central region plus C-terminal region of CRH; also called C-Terminal CRH; C-Ter-CRH
T9 peptide: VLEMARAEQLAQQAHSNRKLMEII
In short: as §1

B1: PR004290 (antibody, human IgG1, kappa, V domains shown)
VH: EVQLVESGGVLVQPGGSLRLSCAASGFTFSSYWMTWVRQAPGKGLEWVANIKQDGSEKYYVDSVKGRFTISRDNAKNSLFLQMNSLRAEDTAVYYCARTLIFDYWGQGTLVTVSS
VL: DIVMTQSPLSLPVTPGEPASISCRSSQSLLHSTGYNSLEWYLQKPGQSPQLLIYLGSNRASGVPDRFSGSGSGTDFTLKISRVEAEDVGIYYCMQTLQTPITFGQGTRLEIKR
notes: human IgG1 wildtype Fc; also called Hybridoma Clone 28b3
- IC50 in the hCRHR1 reporter assay [1]: ~5 nM
- EC50 (read off the curve) [2]: ~0.01 nM
- EC50 (read off the curve) [3]: ~0.01 nM
- EC50 (read off the curve) [4]: ~0.05 nM
- EC50 (read off the curve) [5]: ~0.03 nM
- IC50 (read off the curve), CRH-induced hCRHR1 luciferase reporter [6]: ~3 nM
- EC50 (read off the curve) [7]: ~0.01 nM
- EC50 (read off the curve) [8]: ~0.03 nM
- EC50 (read off the curve) [9]: ~0.05 nM
- IC50 (read off the curve), CRH-induced mCRHR1 luciferase reporter [10]: ~8 nM
- IC50 (read off the curve), CRH-induced hCRHR1 luciferase reporter [11]: ~3 nM
- IC50 (read off the curve), CRH-induced mCRHR1 luciferase reporter [12]: ~5 nM

B2: PR302334-26 (antibody, human IgG1, kappa, V domains shown)
VH: EVQLVESGGGLVQPGGSLRLSCAASGFTFSTYAMSWVRQAPGKGLEWVASIRSGGTTYYPDSVKGRFTISRDNSKNSLYLQMNSLRAEDTAVYYCTRGIDWGQGTTVTVSS
VL: DIVMTQSPDSLAVSLGERATINCKASQSVNNDVAWYQQKPGQPPRLLIYYASNRYTGVPDRFSGSGSGTDFTLTISSLQAEDLAVYFCQQDYSSWTFGGGTKVEIKR
- hCRHR1-Luc 0.5 nM CRH IC50 [13]: 1.1 nM
- EC50 (read off the curve) [14]: ~0.03 nM
- EC50 (read off the curve) [15]: ~0.03 nM
- EC50 [16]: 0.029 nM
- binding result [17]: no binding (tested: 100 nM)
- binding result [18]: no binding (tested: 100 nM)
- binding result [19]: no binding (tested: 100 nM)
- binding result [20]: no binding (tested: 100 nM)
- binding result [21]: no binding (tested: 100 nM)
- binding result [22]: no binding (tested: 100 nM)
